Data taken from the RNAGym collection of RNA variant scans (doi:10.7554/elife.80360).

B1: Twister Ribozyme (parent)
chain: AACACUGCCAAUGCCGGUCCCAAGCCCGGAUAAAAGUGGAGGGGGCGG

Variants of: B1
Assay: self-cleavage, relative activity (ratio to wild type); higher = more cleavage; co-transcriptional

In order of falling self-cleavage:
1. ACCACUGCCAGUGCCGGUCCCAAGCCCGGAUAAAAGUGGAGGGGGCGG [A2C A11G]  0.102
2. ACCACUGCCAAUGCCGGUCCCAAGCCCGGAUAAAAGUGGAGGAGGCGG [A2C G43A]  0.1
3. ACCACUGCCAAUGCCGGUCGCAAGCCCGGAUAAAAGUGGAGGGGGCGG [A2C C20G]  0.0956
4. ACCACUGCCAAUGCCGGUCCCAAGCCCGGAUAAAAGUGGAGGGGGCGG [A2C]  0.0941
5. UACACUGCCAAUGACGGUCCCAAGCCCGGAUAAAAGUGGAGGGGGCGG [A1U C14A]  0.0917
6. ACCACUGCCUAUGCCGGUCCCAAGCCCGGAUAAAAGUGGAGGGGGCGG [A2C A10U]  0.0864
7. ACCACUGCCAAUGCCGGUGCCAAGCCCGGAUAAAAGUGGAGGGGGCGG [A2C C19G]  0.0832
8. ACCACUGCCAAUGCCGGUCCCAAGCCCGGAUAAAAGUGGAUGGGGCGG [A2C G41U]  0.0822
9. ACCACUGCCAAUGCCGGUCCCCAGCCCGGAUAAAAGUGGAGGGGGCGG [A2C A22C]  0.0812
10. UACACUGCCAAUGCCGGUCACAAGCCCGGAUAAAAGUGGAGGGGGCGG [A1U C20A]  0.0791
11. ACCAUUGCCAAUGCCGGUCCCAAGCCCGGAUAAAAGUGGAGGGGGCGG [A2C C5U]  0.0782
12. UACACUGCCAAUGCCGGUCCCAAGCCCGGAUAAAAGUGCAGGGGGCGG [A1U G39C]  0.0764
13. ACCACUGCCCAUGCCGGUCCCAAGCCCGGAUAAAAGUGGAGGGGGCGG [A2C A10C]  0.0739
14. UACACUCCCAAUGCCGGUCCCAAGCCCGGAUAAAAGUGGAGGGGGCGG [A1U G7C]  0.0703
15. ACCACUGCCAAUGCCGGUCCCAAGCCCGGAUAAAAGUGGACGGGGCGG [A2C G41C]  0.0702
16. ACCACUGCCAAUGCCGGUCCCAAGCCCGGAUAAAAGUGGAGCGGGCGG [A2C G42C]  0.0693
17. ACCACUGCCAAUGCCGGUCCCAAGCCCGGAUAAAAGUGUAGGGGGCGG [A2C G39U]  0.0688
18. UACACUGCCAAUGCCGUUCCCAAGCCCGGAUAAAAGUGGAGGGGGCGG [A1U G17U]  0.0683
19. UACACUGCCAAUGCCGGGCCCAAGCCCGGAUAAAAGUGGAGGGGGCGG [A1U U18G]  0.0681
20. UACACUGCCAAUGCCGGUCCCAAGCCCGGAUAAAAGAGGAGGGGGCGG [A1U U37A]  0.0677
21. ACCACUGCCAAUGCCGGUCCCAAACCCGGAUAAAAGUGGAGGGGGCGG [A2C G24A]  0.0674
22. ACCACUGCCAAUGCCGGUCCCAAGCCCGGAUAAAAGUGGAGGGGACGG [A2C G45A]  0.0666
23. UACACUGCCAAUGCCGGUCCGAAGCCCGGAUAAAAGUGGAGGGGGCGG [A1U C21G]  0.0652
24. ACCACUGCCAAUGCCGGUCCCAAGCCCGGAUAAACGUGGAGGGGGCGG [A2C A35C]  0.064
25. UACACUGCCAAUGCCGGUCCCAAGCCCGGAUAAAAGUGGAGGGCGCGG [A1U G44C]  0.0624
26. UACACUGCCAAUGCCGGUCCCAAGCCCGGAUAAAAGUGGAGGGUGCGG [A1U G44U]  0.0595
27. ACCACUGCCAAUGCCGGUCCCAAGACCGGAUAAAAGUGGAGGGGGCGG [A2C C25A]  0.0593
28. UACACUGCCAAUGCCGGUCCCAAGCCCGGAUAAAAGUGAAGGGGGCGG [A1U G39A]  0.0588
29. UACACUGCGAAUGCCGGUCCCAAGCCCGGAUAAAAGUGGAGGGGGCGG [A1U C9G]  0.0577
30. UACACUGCCAAUGCCGGUCCCAAGCCCGGAUAAAAGUGGAGGGGCCGG [A1U G45C]  0.0573
31. UACACUGCCAAUGCCGGUCCCAAGCCCGGAUAAAAGUGGAGGGGUCGG [A1U G45U]  0.0565
32. ACCACUGCCAAUGCCGGUCCCUAGCCCGGAUAAAAGUGGAGGGGGCGG [A2C A22U]  0.0564
33. UACACUGCCAAUGCCGGUCCUAAGCCCGGAUAAAAGUGGAGGGGGCGG [A1U C21U]  0.0559
34. UACACUGCCAAUGCCGGUCCCAAGCCCGGAUAAAAGGGGAGGGGGCGG [A1U U37G]  0.0556
35. UACACUGCCAAUGCCGCUCCCAAGCCCGGAUAAAAGUGGAGGGGGCGG [A1U G17C]  0.055
36. UACACUGCCAAUGCCGGUCCCAAGCCCGGAAAAAAGUGGAGGGGGCGG [A1U U31A]  0.0544
37. ACCACUGCCAAUGCCGGUCCCAAGCCAGGAUAAAAGUGGAGGGGGCGG [A2C C27A]  0.0541
38. UACACUGCCAAUGCCGGCCCCAAGCCCGGAUAAAAGUGGAGGGGGCGG [A1U U18C]  0.054
39. ACCACUGCCAAUGCCGGUCCCAAGCCCGGAUAAAAGUGGAGAGGGCGG [A2C G42A]  0.0532
40. ACCACUGCCAAUGCCGGUCCCAAGCCCGGAUAAAAGUGGAAGGGGCGG [A2C G41A]  0.0488
41. ACCACUGCCAAUGCCGGUCCCAAGCCCGGAUAAAAGUGGAGUGGGCGG [A2C G42U]  0.0469
42. UACACUGCCAAUGCCGGUCCCAAGCCCGGAGAAAAGUGGAGGGGGCGG [A1U U31G]  0.0468
43. UACAGUGCCAAUGCCGGUCCCAAGCCCGGAUAAAAGUGGAGGGGGCGG [A1U C5G]  0.0467
44. ACCACUGCCAAUGCCGGUCCCAAGCCCGGAUAAAAGUGGAGGUGGCGG [A2C G43U]  0.0462
45. ACCACUGCCAAUGCCGGUACCAAGCCCGGAUAAAAGUGGAGGGGGCGG [A2C C19A]  0.0459
46. UACACUGCCAAUGCCUGUCCCAAGCCCGGAUAAAAGUGGAGGGGGCGG [A1U G16U]  0.0446
47. ACCACUGCCAAUGCCGGUCCCGAGCCCGGAUAAAAGUGGAGGGGGCGG [A2C A22G]  0.0432
48. ACCACUGCCAAUGCCGGUCCCAAGCCCGGAUAAAGGUGGAGGGGGCGG [A2C A35G]  0.0429
49. ACCACUGCCAAUGCCGGUCCCAAGCCCAGAUAAAAGUGGAGGGGGCGG [A2C G28A]  0.0374
50. UACACUGCCAAUGGCGGUCCCAAGCCCGGAUAAAAGUGGAGGGGGCGG [A1U C14G]  0.0363
51. ACCACUGCCAAUGCCGGUCCCAAGCCCGGAUAAAAGUGGAGGGCGCGG [A2C G44C]  0.035
52. ACCACUGCCAAUGCCGGUCCCAAGCCCGGCUAAAAGUGGAGGGGGCGG [A2C A30C]  0.0338
53. UACACUGCCAAUGCCGGACCCAAGCCCGGAUAAAAGUGGAGGGGGCGG [A1U U18A]  0.0328
54. ACCACUGCCAAUGCCGGUCCCAAGCCCGGAUAAAAGUGGAGGCGGCGG [A2C G43C]  0.0309
